In patent US20200399386A1 (CELGENE, published 2020):
Substitutions are numbered along the chain they refer to. Each block holds one binder with its values, some of them ahead of it.

Tests used:
human TNFRSF12A = target: T1, human TNFRSF12A (human, UniProt Q9NP84 28-129); assay: flow cytometry on Hek293 cells stably transfected with human TNFRSF12A
T1 construct: whole, on cells; also called TWEAKR
T1 sequence (looked up): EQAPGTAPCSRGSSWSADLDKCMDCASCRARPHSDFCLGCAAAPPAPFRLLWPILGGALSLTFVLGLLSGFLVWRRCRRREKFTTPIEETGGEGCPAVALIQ
Source text: (§1) FACS Analysis: FACs antibodies used in this study include: 1) LS-C106982-100 Mouse Monoclonal to Human TNFRSF12A-R-Phycoerythrin (PE) (LifeSpan BioSciences, Inc.); 2) EM901 has been previously characterized as a BCMA-binding antibody (Mab42; International Application Number WO2017/021450); 3) Ebiosciences anti-human IgG Fey-specific, labeled with PE; 4) Human IgG isotype control; 5) Anti-TACI antibody [1A1](Abcam); 6) BAFF Receptor antibody 8A7 (ThermoFisher); 7) BCMA antibody 19F2 (BioLegend). Each cell type (75,000 cells/well) was incubated with primary antibodies in FACs buffer (PBS containing 0.2% BSA) for 25 min in a 96 well plate. Cells were washed once with FACs buffer and incubated with 1:100 dilution secondary antibody for 25 min. After washing once, cells were fixed for 10 min with 1% paraformaldehyde, washed with FACs buffer and resuspended in 100 μL FACs buffer. Labeled cells were analyzed using an Attune NxT Flow Cytometer and data processed using FlowJo 10.0.8r1 (FLOWJO LLC), according to the manufacturer's instructions.
The reactivity of each antibody was monitored by FACs. An anti-TNFRSF12A antibody stained Hek293-TNFRSF12A cells, indicative of TNFRSF12A expression. […] Geometric means quantifying these binding interactions are shown (FIG. 3).

human BCMA [1] = target: T2, human BCMA (human, UniProt Q02223 1-184); assay: flow cytometry on NCIH929 cells
T2 construct: whole, on cells; Transfected (C6-BCMA) and endogenous (myeloma lines) forms are treated as the same protein on cells; also called B-cell maturation antigen; TNFRSF17
T2 sequence (looked up): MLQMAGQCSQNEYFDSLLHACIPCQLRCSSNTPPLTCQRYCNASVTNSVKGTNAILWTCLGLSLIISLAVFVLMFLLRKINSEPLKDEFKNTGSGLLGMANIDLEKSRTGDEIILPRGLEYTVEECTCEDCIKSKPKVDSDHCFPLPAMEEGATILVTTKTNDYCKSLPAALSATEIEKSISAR
Source text: as §1
The reactivity of each mAb was monitored by FACs. The EM901 antibody, that recognizes BCMA, robustly bound NCIH929 cells. […] Geometric means quantifying these binding interactions are shown (FIG. 4).

human BCMA [2] = target: T2, human BCMA; assay: flow cytometry on C6 cells stably transfected with human BCMA, 0.4 ug/ml antibody
Source text: as §1
(§2) The reactivity of each antibody was monitored by FACs. […] Geometric mean values quantifying these binding interactions are included (FIG. 2).

BAFF receptor = target: T3, BAFF receptor (UniProt Q96RJ3 1-184, limits assumed); assay: flow cytometry, dose response on NUDHL1 cells
T3 construct: whole, on cells
T3 sequence (looked up): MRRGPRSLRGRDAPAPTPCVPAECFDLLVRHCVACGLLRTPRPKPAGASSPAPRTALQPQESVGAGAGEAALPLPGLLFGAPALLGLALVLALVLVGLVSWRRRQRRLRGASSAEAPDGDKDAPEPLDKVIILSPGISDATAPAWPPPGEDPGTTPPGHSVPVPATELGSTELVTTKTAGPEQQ
Source text: as §1
(§3) The reactivity of each mAb was monitored by FACs. […] Geometric means quantifying these binding interactions are shown (FIG. 5).

TACI = target: T4, TACI (UniProt O14836 1-293, limits assumed); assay: flow cytometry, dose response on NUDHL1 cells
T4 construct: whole, on cells
T4 sequence (looked up): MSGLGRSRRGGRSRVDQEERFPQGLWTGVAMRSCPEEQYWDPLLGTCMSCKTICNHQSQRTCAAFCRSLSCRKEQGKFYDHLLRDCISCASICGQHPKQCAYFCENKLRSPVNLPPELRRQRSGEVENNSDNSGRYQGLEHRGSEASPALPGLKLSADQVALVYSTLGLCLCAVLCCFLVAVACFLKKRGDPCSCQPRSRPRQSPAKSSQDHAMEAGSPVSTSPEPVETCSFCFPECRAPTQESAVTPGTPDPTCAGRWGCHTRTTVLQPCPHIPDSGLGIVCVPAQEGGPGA
Source text: as §1, §3

human BCMA [3] = target: T2, human BCMA; assay: flow cytometry on C6 cells expressing human BCMA
Source text: as §1, §2

B1: 319966 (antibody, IgG1, V domains shown)
VH: QLQLQESGPGLVKPSETLSLTCTVSGSSISRSNYYWGWIRQPPGKGLEWIGTFYYSGTTYYNPSLKSRVTISEDTSKKQLSLNLRSVTAADTAVYYCARPSGYTTSWGQGTLVTVSS
VL: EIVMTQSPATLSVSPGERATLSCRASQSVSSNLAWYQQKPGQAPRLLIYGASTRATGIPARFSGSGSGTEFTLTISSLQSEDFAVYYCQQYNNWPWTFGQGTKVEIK
notes: also called human IgG antibody 319966
binding result (human TNFRSF12A): no binding (tested: 0.4 ug/ml) | binding result (human BCMA [1]): binds

B2: 319883 (antibody, IgG1, V domains shown)
VH: QLQLQESGPGLVKPSDTLSLTCTVSGGSISSSNSYWGWIRQSPGRGLEWIGRIYYSGITHYNPSLKSRVTISVDTSKNQFSLKLSSVTAADTAVYYCASPYKWNDGNFFGWGQGTLVTVSS
VL: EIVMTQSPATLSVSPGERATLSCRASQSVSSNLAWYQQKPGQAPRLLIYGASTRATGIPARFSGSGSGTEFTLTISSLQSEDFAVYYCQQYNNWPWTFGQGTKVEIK
binding result (human TNFRSF12A): no binding (tested: 0.4 ug/ml) | binding result (human BCMA [2]): binds

B3: 320199 (antibody, IgG1, V domains shown)
VH: B2 VH with D16E
VL: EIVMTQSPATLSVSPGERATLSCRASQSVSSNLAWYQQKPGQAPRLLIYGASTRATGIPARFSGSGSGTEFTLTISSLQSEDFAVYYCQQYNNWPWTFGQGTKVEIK
notes: also called human IgG antibody 320199
binding result (human TNFRSF12A): no binding (tested: 0.4 ug/ml) | binding result (human BCMA [2]): binds

Second part, the binder after the results:

binding result (human TNFRSF12A): no binding (tested: 0.4 ug/ml) | binding result (BAFF receptor): no binding | binding result (TACI): no binding | binding result (human BCMA [3]): binds
B4: 320262 (antibody, IgG1, V domains shown)
VH: QLQLQESGPGLVKPSETLSLTCTVSGGSISNSNYYWGWIRQPPGKGLEWIGNIYYSGRTYYTPSLKSRVTISEDTSKNQFSLKVRSVTVADTGVYYCARPDYYGSGTIAWGQGTLVTVSS
VL: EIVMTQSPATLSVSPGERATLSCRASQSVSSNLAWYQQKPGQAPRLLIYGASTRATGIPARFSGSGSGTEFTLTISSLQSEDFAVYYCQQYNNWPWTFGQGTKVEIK

binding result (human TNFRSF12A): no binding (tested: 0.4 ug/ml) | binding result (BAFF receptor): no binding | binding result (TACI): no binding | binding result (human BCMA [1]): binds
B5: 320111 (antibody, IgG1, V domains shown)
VH: QLPLQESGPGLVKPSETLSLTCTVSGGSIRSSSYYWGWIRQPPGKGLEWIGTIYYSGSTYYNPSLKSRVTISVDTSKNQLSLKLSSVTAADTAVYYCARPYYDSSGYYYYWGQGTLVTVSS
VL: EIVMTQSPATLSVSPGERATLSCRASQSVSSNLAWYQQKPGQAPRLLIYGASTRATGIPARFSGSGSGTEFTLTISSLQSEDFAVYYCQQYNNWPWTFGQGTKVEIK
